The text below walks through data of article PMC6765261 (Proceedings of the National Academy of Sciences of the …, 2019).

The data set deals with the molecule itself. The data set can be described thus: cryo-EM structure.

B1: CCT6 subunit of yeast TRiC/CCT (natural protein)
chain: not shown
As for B1, the binding result is on record as “binds”.

B2: CCT2 subunit of yeast TRiC/CCT (natural protein, Saccharomyces cerevisiae, UniProt P39076 1-527, looked up)
chain: MSVQIFGDQVTEERAENARLSAFVGAIAVGDLVKSTLGPKGMDKLLQSASSNTCMVTNDGATILKSIPLDNPAAKVLVNISKVQDDEVGDGTTSVTVLSAELLREAEKLIDQSKIHPQTIIEGYRLASAAALDALTKAAVDNSHDKTMFREDLIHIAKTTLSSKILSQDKDHFAELATNAILRLKGSTNLEHIQIIKILGGKLSDSFLDEGFILAKKFGNNQPKRIENAKILIANTTLDTDKVKIFGTKFKVDSTAKLAQLEKAEREKMKNKIAKISKFGINTFINRQLIYDYPEQLFTDLGINSIEHADFEGVERLALVTGGEVVSTFDEPSKCKLGECDVIEEIMLGEQPFLKFSGCKAGEACTIVLRGATDQTLDEAERSLHDALSVLSQTTKETRTVLGGGCAEMVMSKAVDTEAQNIDGKKSLAVEAFARALRQLPTILADNAGFDSSELVSKLRSSIYNGISTSGLDLNNGTIADMRQLGIVESYKLKRAVVSSASEAAEVLLRVDNIIRARPRTANRQHM
B2: the binding result is recorded as “binds”.
